Assay results published in publication PMC7764910, “Structural Insight into the Contributions of the N-Terminus and Key Active-Site Residues to the Catalytic Efficiency of Glutamine Synthetase 2” (Biomolecules, 2020).
Positions count from the first letter of the chain named. In names and notes the source's numbering stands.

T1: DmGS2 (Drosophila melanogaster, UniProt P20478)
T1 construct: gene Gs2; 367 residues per monomer modelled
T1 sequence (P20478 1-369): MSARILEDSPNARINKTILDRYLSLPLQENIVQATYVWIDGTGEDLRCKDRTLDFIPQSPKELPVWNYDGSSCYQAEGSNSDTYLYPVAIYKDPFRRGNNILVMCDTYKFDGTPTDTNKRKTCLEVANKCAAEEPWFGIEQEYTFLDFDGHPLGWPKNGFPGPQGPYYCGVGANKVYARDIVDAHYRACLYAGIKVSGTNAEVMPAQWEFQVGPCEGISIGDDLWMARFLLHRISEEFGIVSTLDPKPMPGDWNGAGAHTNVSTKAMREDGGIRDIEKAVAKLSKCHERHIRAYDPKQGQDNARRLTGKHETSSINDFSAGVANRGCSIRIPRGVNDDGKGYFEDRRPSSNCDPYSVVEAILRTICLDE

B1: DmGS2 (Drosophila melanogaster; P214A) (protein)
chain: T1 sequence (P20478 1-369) with P214A
notes: 367 residues per monomer modelled
B2: Drosophila melanogaster glutamine synthetase 2 (DmGS2), wild type (enzyme, UniProt P20478 1-369, looked up)
chain: T1 sequence (P20478 1-369)
notes: Glutamine synthetase 2, cytoplasmic (DmGS2), Drosophila melanogaster; full-length cDNA of mature DmGS2, GenBank X52759; residues numbered to 369; 367 residues of each monomer seen in the crystal; Decamer of two stacked pentamers in the crystal (with ADP); pentamer and decamer in solution by AUC; No removal of the tags is described; also called WT DmGS2; WT; copies: 10
B3: DmGS2 (Drosophila melanogaster; E311A) (protein)
chain: T1 sequence (P20478 1-369) with E311A
notes: as for B1

How the values were obtained:
DmGS2 = molecular target: T1, DmGS2; experiment: X-ray crystal structure, […] Å; type: binding; details: active site; crystallised with ATP and MgCl2, ADP found in all 10 monomers
purified protein [1] = substrate: NC(=O)CC[C@H](N)C(=O)O; experiment: purified protein; type: biochemical, Drosophila melanogaster; details: saturating hydroxylamine, 3 mM MnCl2, 0.4 mM ADP, 20 mM potassium arsenate, 40 mM imidazole pH 7.9, 37 °C
purified protein [2] = substrate: NO; experiment: purified protein; type: biochemical, Drosophila melanogaster; details: saturating glutamine, 3 mM MnCl2, 0.4 mM ADP, 20 mM potassium arsenate, 40 mM imidazole pH 7.9, 37 °C
purified protein [3] = substrate: N[C@@H](CCC(=O)O)C(=O)O; experiment: purified protein; type: biochemical, Drosophila melanogaster; details: saturating NH4Cl, 12 mM ATP, 50 mM MgCl2, 50 mM imidazole-HCl pH 7.0, 37 °C
purified protein [4] = substrate: N; experiment: purified protein; details: saturating glutamate, 12 mM ATP, 50 mM MgCl2, 50 mM imidazole-HCl pH 7.0, 37 °C
[5] = molecular target: the molecule itself; experiment: crystal structure; DmGS2 with ADP bound; protein 12 mg/mL in 20 mM Tris-HCl pH 7.9, 150 mM NaCl, 5 mM MgCl2, 5 mM ATP, 1 mM sodium 2-mercaptoethanesulphonate; hanging-drop vapor diffusion; 2.12 Å
[6] = molecular target: the molecule itself; experiment: AUC; sedimentation velocity, 20 °C, samples 500 μL at 1.0 mg/mL, absorbance at 280 nm, SEDFIT85

Molecule	X-ray crystal structure, 2.12 Å (DmGS2)	Km (purified protein [1]) [mM]	Vmax (purified protein [1]) [µM/min]	kcat (purified protein [1]) [s⁻¹]	kcat/Km (purified protein [1]) [M⁻¹ s⁻¹]	Km (purified protein [2]) [mM]	Vmax (purified protein [2]) [µM/min]	Km (purified protein [3]) [mM]	Vmax (purified protein [3]) [µM/min]	kcat (purified protein [3]) [s⁻¹]	kcat/Km (purified protein [3]) [M⁻¹ s⁻¹]	Km (purified protein [4]) [mM]	Vmax (purified protein [4]) [µM/min]	kcat (purified protein [4]) [s⁻¹]	kcat/Km (purified protein [4]) [M⁻¹ s⁻¹]	stoichiometry N [5]	stoichiometry N [6]
Nc1ncnc2c1ncn2[C@@H]1O[C@H](COP(=O)(O)OP(=O)(O)O)[C@@H](O)[C@H]1O [ADP]	A structure was obtained for the DmGS2 decamer in complex with ADP	–	–	–	–	–	–	–	–	–	–	–	–	–	–	–	–
B1	–	30.6 ± 6.1	150	0.5 ± 0.0333	16.8 ± 2.33	1.5 ± 0.2	88	6.8 ± 2.2	10.6	0.0355 ± 0.00183	6.33 ± 2.17	0.11 ± 0.03	5.5	0.0183	177	–	–
B2	–	43.1 ± 9.7	120	0.4 ± 0.0333	9.67 ± 1.33	2.0 ± 0.4	64	5.9 ± 1.6	9.2	0.0307 ± 0.00133	5.67 ± 1.33	0.47 ± 0.03	4.6	0.0153	32.7	10	5
B3	–	–	–	–	–	–	–	26.2 ± 2.2	5.5	0.0183 ± 0.00133	0.7 ± 0.00833	–	–	–	–	–	–
